Literature values, collected in publication PMC4166121.

Molecular target: p38 MAPK (UniProt Q16539)
Sequence (Q16539 2-360): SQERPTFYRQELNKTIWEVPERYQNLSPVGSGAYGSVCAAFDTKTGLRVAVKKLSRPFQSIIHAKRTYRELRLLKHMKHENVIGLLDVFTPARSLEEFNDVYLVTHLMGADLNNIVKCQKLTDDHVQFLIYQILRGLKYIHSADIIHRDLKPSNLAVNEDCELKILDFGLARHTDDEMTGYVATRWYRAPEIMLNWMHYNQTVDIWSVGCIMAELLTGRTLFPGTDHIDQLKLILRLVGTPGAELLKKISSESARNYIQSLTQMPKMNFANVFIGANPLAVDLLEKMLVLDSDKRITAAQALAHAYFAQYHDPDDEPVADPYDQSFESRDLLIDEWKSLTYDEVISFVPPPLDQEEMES

eNOS, sequence (P29474 2-1203): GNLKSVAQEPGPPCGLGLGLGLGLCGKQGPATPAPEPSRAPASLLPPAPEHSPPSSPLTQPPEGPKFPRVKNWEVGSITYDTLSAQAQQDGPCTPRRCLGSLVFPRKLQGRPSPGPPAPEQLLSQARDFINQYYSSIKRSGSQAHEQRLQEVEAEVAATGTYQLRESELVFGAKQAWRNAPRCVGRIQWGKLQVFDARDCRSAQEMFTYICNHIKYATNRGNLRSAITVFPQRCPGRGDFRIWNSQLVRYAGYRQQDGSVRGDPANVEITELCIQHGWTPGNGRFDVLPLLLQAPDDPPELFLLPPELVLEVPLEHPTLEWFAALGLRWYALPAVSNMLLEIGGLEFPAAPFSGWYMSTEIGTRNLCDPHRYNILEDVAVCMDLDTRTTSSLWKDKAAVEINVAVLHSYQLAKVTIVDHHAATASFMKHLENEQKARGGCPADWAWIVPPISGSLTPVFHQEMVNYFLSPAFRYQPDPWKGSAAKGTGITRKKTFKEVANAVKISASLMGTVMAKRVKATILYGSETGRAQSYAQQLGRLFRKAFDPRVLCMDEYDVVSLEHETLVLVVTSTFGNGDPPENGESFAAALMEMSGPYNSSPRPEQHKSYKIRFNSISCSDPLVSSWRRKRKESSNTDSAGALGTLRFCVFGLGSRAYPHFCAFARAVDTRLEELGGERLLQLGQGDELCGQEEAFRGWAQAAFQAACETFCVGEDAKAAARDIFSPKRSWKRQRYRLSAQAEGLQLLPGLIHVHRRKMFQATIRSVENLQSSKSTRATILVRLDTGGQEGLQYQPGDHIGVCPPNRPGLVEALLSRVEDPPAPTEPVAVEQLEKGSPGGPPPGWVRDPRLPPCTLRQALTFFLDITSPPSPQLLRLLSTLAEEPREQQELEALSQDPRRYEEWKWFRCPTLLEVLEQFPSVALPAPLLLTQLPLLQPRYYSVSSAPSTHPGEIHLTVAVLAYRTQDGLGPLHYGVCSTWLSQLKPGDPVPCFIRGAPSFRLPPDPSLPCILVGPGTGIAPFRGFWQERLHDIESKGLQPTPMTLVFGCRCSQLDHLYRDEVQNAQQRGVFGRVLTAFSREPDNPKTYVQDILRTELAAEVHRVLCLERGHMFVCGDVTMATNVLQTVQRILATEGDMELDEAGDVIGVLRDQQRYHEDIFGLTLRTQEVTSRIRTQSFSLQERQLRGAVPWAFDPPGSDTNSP

Kd: 0.08 nM
Substance: eNOS (from UniProt P29474)
